Test results taken from WO2013190679A1 (dated 2013).

What was measured:
[1] = molecular target: T1, recombinant human LOX-1 protein (61-273aa) (human, UniProt P78380 61-273); test: ELISA on immobilised LOX-1; protein concentration at the inflection point of a 4-parameter logistic fit
[2] = molecular target: T2, BSA (negative control, Sigma) (UniProt P02769 25-607); test: ELISA, BSA immobilised, HRP anti-V5 tag
[3] = molecular target: T2, BSA (negative control, Sigma); test: ELISA, BSA immobilised, HRP anti-mouse IgG
[4] = molecular target: T1, recombinant human LOX-1 protein …; test: ELISA, LOX-1 (61-273aa) immobilised, HRP anti-mouse IgG

T2 sequence (P02769 25-607 limits assumed): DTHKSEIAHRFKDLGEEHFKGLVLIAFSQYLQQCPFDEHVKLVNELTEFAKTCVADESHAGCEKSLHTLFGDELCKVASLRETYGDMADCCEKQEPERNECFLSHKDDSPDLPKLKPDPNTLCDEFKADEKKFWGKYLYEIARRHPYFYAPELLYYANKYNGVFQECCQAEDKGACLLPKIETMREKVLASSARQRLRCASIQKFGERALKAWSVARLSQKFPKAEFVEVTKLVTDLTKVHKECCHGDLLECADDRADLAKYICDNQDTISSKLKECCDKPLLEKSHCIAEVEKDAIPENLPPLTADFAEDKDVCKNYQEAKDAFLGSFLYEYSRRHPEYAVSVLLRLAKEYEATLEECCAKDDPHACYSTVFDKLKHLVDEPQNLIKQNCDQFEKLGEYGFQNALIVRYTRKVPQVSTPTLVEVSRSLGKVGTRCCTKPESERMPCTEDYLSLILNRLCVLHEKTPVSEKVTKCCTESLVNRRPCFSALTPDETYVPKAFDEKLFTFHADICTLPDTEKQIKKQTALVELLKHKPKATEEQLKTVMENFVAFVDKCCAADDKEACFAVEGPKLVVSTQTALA

| EC50 [1] | binding result [2] | binding result [3] | binding result [4] | Binder |
| --- | --- | --- | --- | --- |
| 2.91 µg/mL | no binding | – | – | Fv-type anti-LOX-1 antibody (scFv, The VH gene was amplified with the #10-1 heavy chain secretion signal; Expressed in FreeStyle 293 and purified by the His tag; also called Fv type antibody; Fv-type antibody; not shown: C-terminal V5 and 6xHis tag from the pEF6/V5/His vector) scFv: EVKLLESGGGLVQPGGSLKLSCAVSGFDFSRYWMSWVRQAPGKGLEWIGEINPDSSTINFTPSLKDKFIVSRDNAKNTLYLQMSKVRSEDTALYYCARNDVLLGAMDYWGQGTSVTVSSGGGGSGGGGSGGGGSDVLMTQTPLSLPVSLGDQASISCRSSQTIVHSNGKTYLEWYLQKPGQSPKLLIYKVSNRFSGVPDRFSGSGSGTDFTLKISRVEAEDLGVYYCFQGSHVPLTFGAGTKLELK |
| – | – | no binding | binds | mouse anti-LOX-1 monoclonal antibody #10-1 (antibody, V domains shown, Whole mouse IgG1, kappa from the hybridoma; also called anti-LOX-1 antibody #10-1; IgG type of mouse anti-LOX-1 antibody #10-1) VH: EVKLLESGGGLVQPGGSLKLSCAVSGFDFSRYWMSWVRQAPGKGLEWIGEINPDSSTINFTPSLKDKFIVSRDNAKNTLYLQMSKVRSEDTALYYCARNDVLLGAMDYWGQGTSVTVSS VL: DVLMTQTPLSLPVSLGDQASISCRSSQTIVHSNGKTYLEWYLQKPGQSPKLLIYKVSNRFSGVPDRFSGSGSGTDFTLKISRVEAEDLGVYYCFQGSHVPLTFGAGTKLELK |
